# Results published in publication PMC7969950.
# Target: endogenous LC3 (MCF10A cells), Q9GZQ8
# Assay: co-immunoprecipitation (Flag-Trap), immunoblot
# Details: chain shown with the change; BafA1-treated MCF10A cells; parent: 1.0
row,ratio to parent,Binder
1,0.29,"wild-type Flag-CTNNA1 (in MCF10A cells), P35221 Y419A; V422A; L897A; F900A (protein) MTAVHAGNINFKWDPKSLEIRTLAVERLLEPLVTQVTTLVNTNSKGPSNKKRGRSKKAHVLAASVEQATENFLEKGDKIAKESQFLKEELVAAVEDVRKQGDLMKAAAGEFADDPCSSVKRGNMVRAARALLSAVTRLLILADMADVYKLLVQLKVVEDGILKLRNAGNEQDLGIQYKALKPEVDKLNIMAAKRQQELKDVGHRDQMAAARGILQKNVPILYTASQACLQHPDVAAYKANRDLIYKQLQQAVTGISNAAQATASDDASQHQGGGGGELAYALNNFDKQIIVDPLSFSEERFRPSLEERLESIISGAALMADSSCTRDDRRERIVAECNAVRQALQDLLSEYMGNAGRKERSDALNSAIDKMTKKTRDLRRQLRKAVMDHVSDSFLETNVPLLVLIEAAKNGNEKEVKEAAQAFREHANKLIEVANLACSISNNEEGVKLVRMSASQLEALCPQVINAALALAAKPQSKLAQENMDLFKEQWEKQVRVLTDAVDDITSIDDFLAVSENHILEDVNKCVIALQEKDVDGLDRTAGAIRGRAARVIHVVTSEMDNYEPGVYTEKVLEATKLLSNTVMPRFTEQVEAAVEALSSDPAQPMDENEFIDASRLVYDGIRDIRKAVLMIRTPEELDDSDFETEDFDVRSRTSVQTEDDQLIAGQSARAIMAQLPQEQKAKIAEQVASFQEEKSKLDAEVSKWDDSGNDIIVLAKQMCMIMMEMTDFTRGKGPLKNTSDVISAAKKIAEAGSRMDKLGRTIADHCPDSACKQDLLAYLQRIALYCHQLNICSKVKAEVQNLGGELVVSGVDSAMSLIQAAKNLMNAVVQTVKASYVASTKYQKSQGMASLNLPAVSWKMKAPEKKPLVKREKQDETQTKIKRASQKKHVNPVQAASEAKAMDSI"
2,0.22,"wild-type Flag-CTNNA1 (in MCF10A cells), P35221 L897A; F900A (protein) MTAVHAGNINFKWDPKSLEIRTLAVERLLEPLVTQVTTLVNTNSKGPSNKKRGRSKKAHVLAASVEQATENFLEKGDKIAKESQFLKEELVAAVEDVRKQGDLMKAAAGEFADDPCSSVKRGNMVRAARALLSAVTRLLILADMADVYKLLVQLKVVEDGILKLRNAGNEQDLGIQYKALKPEVDKLNIMAAKRQQELKDVGHRDQMAAARGILQKNVPILYTASQACLQHPDVAAYKANRDLIYKQLQQAVTGISNAAQATASDDASQHQGGGGGELAYALNNFDKQIIVDPLSFSEERFRPSLEERLESIISGAALMADSSCTRDDRRERIVAECNAVRQALQDLLSEYMGNAGRKERSDALNSAIDKMTKKTRDLRRQLRKAVMDHVSDSFLETNVPLLVLIEAAKNGNEKEVKEYAQVFREHANKLIEVANLACSISNNEEGVKLVRMSASQLEALCPQVINAALALAAKPQSKLAQENMDLFKEQWEKQVRVLTDAVDDITSIDDFLAVSENHILEDVNKCVIALQEKDVDGLDRTAGAIRGRAARVIHVVTSEMDNYEPGVYTEKVLEATKLLSNTVMPRFTEQVEAAVEALSSDPAQPMDENEFIDASRLVYDGIRDIRKAVLMIRTPEELDDSDFETEDFDVRSRTSVQTEDDQLIAGQSARAIMAQLPQEQKAKIAEQVASFQEEKSKLDAEVSKWDDSGNDIIVLAKQMCMIMMEMTDFTRGKGPLKNTSDVISAAKKIAEAGSRMDKLGRTIADHCPDSACKQDLLAYLQRIALYCHQLNICSKVKAEVQNLGGELVVSGVDSAMSLIQAAKNLMNAVVQTVKASYVASTKYQKSQGMASLNLPAVSWKMKAPEKKPLVKREKQDETQTKIKRASQKKHVNPVQAASEAKAMDSI"
3,0.23,"wild-type Flag-CTNNA1 (in MCF10A cells), P35221 Y419A; V422A (protein) MTAVHAGNINFKWDPKSLEIRTLAVERLLEPLVTQVTTLVNTNSKGPSNKKRGRSKKAHVLAASVEQATENFLEKGDKIAKESQFLKEELVAAVEDVRKQGDLMKAAAGEFADDPCSSVKRGNMVRAARALLSAVTRLLILADMADVYKLLVQLKVVEDGILKLRNAGNEQDLGIQYKALKPEVDKLNIMAAKRQQELKDVGHRDQMAAARGILQKNVPILYTASQACLQHPDVAAYKANRDLIYKQLQQAVTGISNAAQATASDDASQHQGGGGGELAYALNNFDKQIIVDPLSFSEERFRPSLEERLESIISGAALMADSSCTRDDRRERIVAECNAVRQALQDLLSEYMGNAGRKERSDALNSAIDKMTKKTRDLRRQLRKAVMDHVSDSFLETNVPLLVLIEAAKNGNEKEVKEAAQAFREHANKLIEVANLACSISNNEEGVKLVRMSASQLEALCPQVINAALALAAKPQSKLAQENMDLFKEQWEKQVRVLTDAVDDITSIDDFLAVSENHILEDVNKCVIALQEKDVDGLDRTAGAIRGRAARVIHVVTSEMDNYEPGVYTEKVLEATKLLSNTVMPRFTEQVEAAVEALSSDPAQPMDENEFIDASRLVYDGIRDIRKAVLMIRTPEELDDSDFETEDFDVRSRTSVQTEDDQLIAGQSARAIMAQLPQEQKAKIAEQVASFQEEKSKLDAEVSKWDDSGNDIIVLAKQMCMIMMEMTDFTRGKGPLKNTSDVISAAKKIAEAGSRMDKLGRTIADHCPDSACKQDLLAYLQRIALYCHQLNICSKVKAEVQNLGGELVVSGVDSAMSLIQAAKNLMNAVVQTVKASYVASTKYQKSQGMASLNLPAVSWKMKAPEKKPLVKREKQDETQTKIKRASQKKHVNPVQALSEFKAMDSI"
